Results as given in the DeepSol protein solubility set.

Test: soluble on expression in E. coli; label from the status in PepcDB or PDB records

Row | Sequence | soluble on expression in E. coli
1 | MSLGNASMTKTDIATRVHNHTWKLDPIVRSLIDTDFYKLLMLQMIWKLYPEVDATFSLINRTKTVRLAEEIDEMELREQLDHARTLRLSKKENIWLAGNTFYGRSQIFEPEFLSWLSSYQLPEYELFKRDGQYELNFHGRWMDTTLWEIPALSIINELRSRSAMRSLGYFTLDVLYARAKAKMWEKVERLRELPGLRISDFGTRRRHSFLWQRWCVEALKEGIGPAFTGTSNVLLAMDSDLEAVGTNAHELPMVVAALAQTNEELAAAPYQVLKDWNRLYGGNLLIVLPDAFGTAAFLRNAPEWVADWTGFRPDSAPPIEGGEKIIEWWRKMGRDPRTKMLIFSDGLDVDAIVDTYRHFEGRVRMSFGWGTNLTNDFAGCAPKTIASLKPISIVCKVSDANGRPAVKLSDNPQKATGDPAEVERYLKFFGEEDHKEQKVLVEGHHHHHH | soluble
2 | MPRRALGWTAEVLKRLHGINYPITKDTLREKLAGMSIRGVPVERVIDEIEVDKFDTPRDVLHYIAEAVHKLEERGEIPTETRKGIRWAAEVLKRIHGEHFPMDKQKLKEKLAGLYWRGVPIEKVIDAMEVEQVESPADLLHQLSIAIKKLEEQGEVA | not soluble
3 | MTNLTFYAKIGISEEEHDSFVKEHQQISVLQGSDWAKIKNQWQNERIGIYKEEKQVASLSLLIKLLPLGRSIIYIPRGPVMDYLDRDLVAFTMKTLKDYGKTKKALFIKYDPAILLKQYALGQEEEEKPLALAAIKNLQEAGVHWTGLTMEIADSIQPRFQANIYTQENLEMQFPKHTRRLIKDAKQRGVKTYRVSQSELHKFSKIVSLTEKRKNISLRNEAYFQKLMTTYGDKAYLHLAKVNIPQKLDQYRQQLILINQDITRTQAHQKKRLKKLEDQKASLERYITEFEGFTDQYPEEVVVAGILSISYGNVMEMLYAGMNDDFKKFYPQYLLYPNVFQDAYQDGIIWANMGGVEGSLDDGLTKFKANFAPTIEEFIGEFNLPVSPLYHIANTMYKIRKQLKNKH | not soluble
4 | MAHHHHHHMALLVYLNNKQTHSFIAVRKSSSLLFSPGNFKAIYQRIYEHLNDQYEERGQLEAGEEILTVKPNVFAQNGVIDFDGVRKMWTSHIVPQLRRCVTGDHLANTTDNSVVSIEESAVFCDIGSGVGNVCLQLLAETNCRKVVGVEVIPSRHRAATTAFAKALSYFPENFSGKQAIFIQDDFVNCARRMVEENVNVIFTHSWMFDDELMKRLTELVVSLPALLCVVTSRPLHENLLVGSQMKLVSYVHLTADWNDEAPFFIYRKIT | not soluble
5 | MDELTAFNQCLAWLTHTTALPEHLDGLVLCGNSLPATATAAGQLAQDYQLPLLIIAGGVGHATKYLRQNLNLPKSQASEAELMATLVRKTGYQGSIRLDKTSTNTGSNATHARALAPTDWRHVLLVQDPLLARRTTLTFSANWSNANFIRYAPATLQLNRLQPMQFTPNTIVAGWQPAYFTELLLGEFQRLVDTPTGYGPRGQGFIAHVDIPEEVLAAARYLQSQSLHRQRLEHHHHHH | soluble
6 | MIMNHMPKKIVIIGAGAGGGISLSQLRRALSNEDVEITIIDQTGRTDFQPSYVFLALGEKKPEEISRDISQLNDSRVRAVKDTVISVDAANRVVKTSGGSYQYDYLIMSPGPSIDPSSLKGHEATHSVWTMEDSLRLRDAVKNFKGGNVLISVSTQWYKCPPVPWEMALLLDDYFRRKNIRDKVKITVAHPVSRPMEMYGPGLSEPFSKMLDDRNIEGIYGRRVSSVDAEKKRAIMDNGETVGFDLSIVAPPHLPPDFIKNNDDLRSPRGWAATNIRDFRNPKYEDVFAIGDVIAPTIQIGMAGVLAHFQADTVSSAIAEEIAGYPFMEYNKVAVCIIATGGSGVFSYCDLAGKLTDPKVKFPECRMIGNDPLFRFAHDLYEVNFLSSIYGSRLEHHHHHH | not soluble
7 | MSTAAKQNRSTSRVSKKKTAAPKEGAAKKSDKGHKYEYVELAKASLTSAQPQHFYAVVIDATFPYKTNQERYICSLKIVDPTLYLKQQKGAGDASDYATLVLYAKRFEDLPIIHRAGDIIRVHRATLRLYNGQRQFNANVFYSSSWALFSTDKRSVTQEINNQDAVSDTTPFSFSSKHATIEKNEISILQNLRKWANQYFSSYSVISSDMYTALNKAQAQKGDFDVVAKILQVHELDEYTNELKLKDASGQVFYTLSLKLKFPHVRTGEVVRIRSATYDETSTQKKVLILSHYSNIITFIQSSKLAKELRAKIQDDHSVEVASLKKNVSLNAVVLTEVDKKHAALPSTSLQDLFHHADSDKELQAQDTFRTQFYVTKIEPSDVKEWVKGYDRKTKKSSSLKGASGKGDNIFQVQFLVKDASTQLNNNTYRVLLYTQDGLGANFFNVKADNLHKNADARKKLEDSAELLTKFNSYVDAVVERRNGFYLIKDTKLIY | soluble
8 | ASITGDALVALPEGESVRIADIVPGARPNSDNAIDLKVLDRHGNPVLADRLFHSGEHPVYAVRTVEGLRVTGTANHPLLCLVDVAGVPTLLWKLIDEIKPGDYAVIQRSAFSVDCAGFARGKPEFAPTTYTVGVPGLVRFLEAHHRDPDAKAIADELTDGRFYYAKVASVTDAGVQPVYSLRVDTADHAFITNGFVSHN | soluble
9 | MLPSTSKSVEVNENSEEPIELEENVIVVTGDEIQAEIAVVDGEEVIFADDDEYIEYDPLSIANDRNAVYDIYQPHESENGTFMCKICMRTGKNTEYEDRSTFVAHRYKCHGSFNNNVMCPLGDCREVFASLYTLRRHLSQQHELPIEIHLQSFVNIGEFEKFRHLVELASGCRFMMHTKQPKYRRQVMHCSKSEHKLVLQTQKHRLPRERMLKEGSACPSVISYRVESSSGEVHTFMQLYHIGHAPDTESQNSNADNARPMDIVFPIKPACWANHPMQYVQIDVHEMPTSIYGNKIYDNILIVTCLKTRFLWAKPLFECTRTAIGRILNSIFNEYGVPEGFSTSFSPTYIRDTIKSLESVYAVEIREVWNEPLPYNCLERWVLELAQNELGTRNRWVEQLQFLVMEYNQKPIPDRMETPFERMFNRKAPNLYHNGDNQEIIHDKYISYHSELRNEEEGVENRLNTSFEPGRKVFLRKGITKPRRGNNTQYYFGYIGEVDPSNPYYPFKVHYTSSDSPWPSERNIYAWVSVFDLLPTIHEISEMSMTSKKVSIAGLLCSCMGIESSQKYDLTAMGDIARESSRCLLFRNCLCTNQMSRFCCKLVGREHCRFHSVYPENDESYAKMDAALSSFIAYNKDSSKEAEKDLQDSTPIEQILNEVGRRRLESEITVEDPEDLAPPILEPMEPTERHLDTEEEEEEPNQIPMASEHIDIEGVDEEEIMEHSVNAISEEILFEYADDKRDDGPSTPKRGRRRKSPSESAGKKKKLSNNDEFVESTVSRRSSARRTIRPKNLDDYVE | not soluble
10 | MGSDKIHHHHHHMCMDRAICGNFYYGGKFDYLEVIVSDGKIAGIKKDAGNVPKTNYDGAILPAATDIHVHFRTPGETEKEDFGSGSLSAIYGGTTYVMDMPNNRFPITDYNAFGDKLGSIDSTSFADFSLYSMETGKNAMLLDRRSIGLKVYLGGSTNSTGTEVIEEGDIRKINEMNYPVVFHGESERCLKTHQMEEKNLRDHNLARPIDCEIEAAKYVSGLDIKTKIMAHVSSPDVTGNFLREVTPHHLLLNDEMPLGSFGKVNPPLRDSRTQKRLLDDYISGKFDILSSDHAPHTEDDKREFEFAKSGIIGVETRVPLFLALAQKKIVPLDVLYRTAIENPPSIFGIKKGKIEIGYDADFMVIDFTSMKRINDNRLHSKFPVSPFNGMDAIFPSHVIMRGNVVIDRYEDISDPMGVFIPKPQKE | not soluble
11 | MSLESKYTVLDMFSGAGGLTEGFFQQGFKFVSHIEKNCHARNSLETRAIYHSLKDSSNERIYRDYISGNLNRDEFIHKFKELELTPAGLLQGEVTESNETTMIKEIKEHLKVIDSDSVDVVIGGPPCQAYSVAGRGRKPKEMKDDPRNYLYRHYISFLKSFEPKIFVFENVPGIKSAINGIIFSNLHEELEKLGYKTEAHMLNAKDFSVLQERNRIIFIGWKNEHDLSYPDFLKTPLGRFHVSSLLNDLPPLQAGEGTEGPAKYTKPFSWSSEYLQRFKIREKKDILIQHNARIHNPRDRTIYRLAIEKWDKERKRLKYNELSPELQTHKNKTSFLDRFKVVNQYGYSHAILAHISKDGHYFIHPDIHQARSLTVREVARIQSFPDNYKFEGPRIAQYAQIGNAVPPLMAKGIAVEIEKMLEEISEGHHHHHH | not soluble
12 | MEIGPDGKPCRACVSVEDMMKKGREMAEKIKKKESETTPSTSTGAKLHGCPVDKDELGRSTWNLLHTMSVYYPEKPTDEDKDRARSFMSILGKTYPCDFCAKDLRKDLKESPPKVESREAFALWMCQLHNKVNEKTGKPKFECRDVMQRWRDGWKDGSCDY | soluble
13 | MGSDKIHHHHHHMITVRDLSWQYEPLVDGGKPVDSLKHVSFDIKSGSFVGVIGPTGAGKSTLCMALAGIIPNLADGTMTGLVEVNGMNTSRHSVSALSERIGYVQQDPEAQLFCASVEDEIAFPLENRGIAPDIIDKQIDVMLDLVGMTGYRKRVPASLSGGQMQRVAIAAALAAEPDVLILDEPTAALDPEGKQEVFDVLERIRQTRSMTVIMAEQDTEHIAYWADQVLFMVNGELVRNGDASLFVREKGLLESSGVQVADDPLPQVKAVQQGKKHKKDKKNQPERSKDVVISLDHVSYQYERGGNASKALDDVTFDIERGSFIGLIGRNGSGKTTLAKHLNGLIRPTQGTVTVDGLDASKHSVGEMAAHVGFVFQNPDHQIFCSTTKEEIAFGPTALGLDGATVFKRVDEMLTLFDLHRYEDVSPATLGYGERRAVALSSVLAMRTPILVLDEPTAGLDHRLAARFLGTIEKLNQRGVTIVMISHDMRAVYRYCTHVLELEDGKVVQYGPIDRSEAAQKQSRTIRKPRKSNGPVSATHVLLKVTKHEEGRH | not soluble
14 | MVKNQFPLVADGIAISDPAKQMALYENEDLITNIRGYYQDKEYDDIARNEEFTAKATSRQTPSSKRFCSNDEKHHYVKEARQKAKQDLKEKRQAYLAKEMAYVPKQVSKKQQPADSSPSQKQATTEMSRFTKKLHQDNYILAELPKEYKEPKNLPQQGTTKKNNYDFLKSSQIYNNKEMRQQREKTIAQELNLSRFEDLP | not soluble
15 | MTIEKIDTLVIGAGQAGVAMSEHLSKQDVPHLVLERNRIAEQWRTGRWDSLVANGPAWHDRFPGLEFEEHDPDSFVPKEKIADYLVDYAKKFDAPIRTGIEVKNVERNTNGQGFIIETSQGTIEAKRVVSATGPFQVPVIPPIAKNEKITQIHSADYRNPEQLEDGAVLVVGAGSSGVQIADELQRSGRKVFLSTGPHDRPPRSYRNRDFCWWLGVLGEWDRESLEPGTEHVTIAVTGAHGGNGTVDFRALAHQGITLLGMTKEFNNGKVTFQKDLNTNVERGNKNYMDFLDSADAYIERNGLDLPEEPTARDVLSDPECMTNPILELDLAKEGITSIVWATGFALDYSWLNVDAFDENGKPAHQRGVSTEPGVYFVGQAWLSRRGSAFIWGVWHDAKHIAGHISTQRTYSAYQDASQRLEHHHHHH | soluble
16 | AIAPSDLAKKKAAKKKEAAKARGRTRKPEDGVNGDAEKPEIQENGAAEVNGVDSLAKELDEFELKKTEARAVTGVLASHPNSTDVHISSLSLTFHGQELLSDTSLELNSGRRYGLIGLNGTGKSMLLSAISHREVPIPEHIDIYHLTREMAPSEKTALQCVMEVDEERIKLEKEAERLAHEDSECEKLMELYERLEELDADKASMRASRILHGLGFTTSMQQKKLKDFSGGWRMRVALARALFLKPFMLLLDEPTNHLDLDACVWLEEELSQFKRILVLISHSQDFLNGVCTNIIHLHQRKLKYYTGNYDQYVKTREELEENQMKRFNWEQDQIAHMKNYIARFGHGSAKLARQAQSKEKTLQKMVASGLTERVVNDKTLSFYFPPCGKIPPPVIMVQNVSFRYSENTPYIYKNLEFGIDLDTRVALVGPNGAGKSTLLKLLTGELLPSDGMIRKHSHVKIGRYHQHLTEQLELDLSPLEYMMKCYPEIKEKEEMKKIIGRYGLTGKQQVSPIRNLSDGQKCRVCFAWLAWQNPHMLFLDEPTNHLDIETIDALAEAINDFEGGMMLVSHDFRLIQQVAQEIWVCEKQTITKWSRDILAYKEHLKSKIDKQMHDL | soluble
